Biological target: Psy2 with aa 25–129 deleted, fused to lexA-DBD (S. cerevisiae)
Assay: two-hybrid

B1: DDC2 fused to B42-AD (natural protein)
chain: MRRETVGEFSSDDDDDILLELGTRPPRFTQIPPSSAALQTQIPTTLEVTTTTLNNKQSKNDNQLVNQLNKAQGEASMLRDKINFLNIEREKEKNIQAVKVNELQVKHLQELAKLKQELQKLEDEKKFLQMEARGKSKREVITNVKPPSTTLSTNTNTITPDSSSVAIEAKPQSPQSKKRKISDNLLKKNMVPLNPNRIIPDETSLFLESILLHQIIGADLSTIEILNRLKLDYITEFKFKNFVIAKGAPIGKSIVSLLLRCKKTLTLDRFIDTLLEDIAVLIKEISVHPNESKLAVPFLVALMYQIVQFRPSATHNLALKDCFLFICDLIRIYHHVLKVPIHESNMNLHVEPQIFQYELIDYLIISYSFDLLEGILRVLQSHPKQTYMEFFDENILKSFEFVYKLALTISYKPMVNVIFSAVEVVNIITSIILNMDNSSDLKSLISGSWWRDCITRLYALLEKEIKSGDVYNENVDTTTLHMSKYHDFFGLIRNIGDNELGGLISKLIYTDRLQSVPRVISKEDIGMDSDKFTAPIIGYKMEKWLLKLKDEVLNIFENLLMIYGDDATIVNGEMLIHSSKFLSREQALMIERYVGQDSPNLDLRCHLIEHTLTIIYRLWKDHFKQLREEQIKQVESQLIMSLWRFLVCQTETVTANEREMRDHRHLVDSLHDLTIKDQASYYEDAFEDLPEYIEEELKMQLNKRTGRIMQVKYDEKFQEMARTILESKSFDLTTLEEADSLYISMGL
percent reduction of the two-hybrid interaction: 50%

Reference: paper PMC5706562
